Laboratory results: US20260125478A1 (VIELA BIO, published 2026)

Tests used:
Test in all cases: Biacore; IgG1-TM captured on a Protein G chip, CD32A as analyte, 1:1 Langmuir fit, average of two experiments
[1] = target: T1, Human CD32A 131H extracellular domain, 6xHis_Flag tagged (human, UniProt P12318 34-217)
T1 construct: Used unlabelled as the analyte in Biacore; also called Hu CD32A_131His
T1 sequence: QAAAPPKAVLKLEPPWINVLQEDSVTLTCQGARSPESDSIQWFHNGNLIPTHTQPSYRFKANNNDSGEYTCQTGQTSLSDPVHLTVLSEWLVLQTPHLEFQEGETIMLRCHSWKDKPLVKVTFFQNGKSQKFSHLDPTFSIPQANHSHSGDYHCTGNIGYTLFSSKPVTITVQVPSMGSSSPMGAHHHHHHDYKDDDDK

[2] = target: T2, Human CD32A 131R extracellular domain, 6xHis_Flag tagged (human, UniProt P12318 34-217)
T2 construct: also called Hu CD32A_131Arg; human CD32A_131 Arg
T2 chain: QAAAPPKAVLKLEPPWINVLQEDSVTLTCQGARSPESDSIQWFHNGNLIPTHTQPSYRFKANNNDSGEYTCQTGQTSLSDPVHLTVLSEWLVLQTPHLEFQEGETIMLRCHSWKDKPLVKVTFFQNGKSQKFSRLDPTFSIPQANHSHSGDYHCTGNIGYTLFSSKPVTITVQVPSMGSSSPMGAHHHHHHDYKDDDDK

[3] = target: T3, cynomolgus CD32A version 3, 6xHis tagged (cynomolgus monkey)
T3 construct: also called Cyno CD32A; cyno CD32A (version 3)
T3 chain: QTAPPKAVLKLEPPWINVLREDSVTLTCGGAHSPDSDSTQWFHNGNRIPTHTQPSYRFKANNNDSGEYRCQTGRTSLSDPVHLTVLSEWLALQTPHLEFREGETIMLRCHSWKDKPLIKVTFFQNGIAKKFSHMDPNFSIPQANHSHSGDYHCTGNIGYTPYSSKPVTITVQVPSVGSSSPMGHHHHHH

B1: 32LO0352 (MEDI9600) (antibody, human IgG1, V domains shown)
VH: QVQLVQSGAEVKKPGASVKVSCKASGYTFTNYGMNWVRQAPGQRLEWMGWLNTYTGESWYPDDFKGRVTITRDTSASTAYMELSSLRSEDTAVYYCARGDYGYDDPLDYWGQGTLVTVSS
VL: DIVMTQSPLSLPVTPGEPASISCRSSKSLLHTNQNTYLHWFLQKPGQSPQLLIYRMSVLASGVPDRFSGSGSGTDFTLKISRVEAEDVGVYYCMQHLEYPLTFGQGTKLEIK
notes: Fluorescently labelled in the neutrophil flow cytometry assay and Alexa 647 labelled for confocal microscopy; also called clone 32LO0352; CD32LO0352
For B1, the Kd [1] was 0.13 nM, the koff [1] was 0.000337 s⁻¹ and the kon [1] was 2.6e+06 M⁻¹ s⁻¹. The Kd [2] was 0.15 nM, the koff [2] was 0.000735 s⁻¹ and the kon [2] was 4.98e+06 M⁻¹ s⁻¹. For the same binder, the Kd [3] was 31.3 nM, the koff [3] was 0.0904 s⁻¹ and the kon [3] was 2.88e+06 M⁻¹ s⁻¹.
